Data published in patent US20210396761A1 (AICURIS, published 2021).
Non-standard residues stand in square brackets, D forms with d. *: point of attachment. Bio = O=C1N[C@H]2[C@H](CS[C@H]2CCCCC(=O)*)N1; Aoa = not defined here

B1: EBV hook peptide (Ac-BFLF2 80-108-Aoa-Lys(Bio)-NH2) (peptide)
peptide: Ac-SHFSLRDFFRGISANFELGKDFLREMNTP[Aoa]K(Bio)-NH2
modifications: reading uncertain
B2: HCMV hook peptide (Ac-pUL53 59-87-Aoa-Lys(Bio)-NH2) (peptide)
peptide: LTLHDLHDIFREHPELELKYLNMMKMAITK
modifications: not checked
B3: VZV Orf24, C-terminally fused to the HA epitope (pcDNA-Orf24-HA, pHM4695) (other)
chain: MSRRTYVRSERRRGCGDNLLQRIRLVVPSALQCCDGDLPIFDPQRPPARCVFQFNGEDNVSEAFPVEYIMRLMANWAQVDCDPYIKIQNTGVSVLFQGFFFRPTNAPVAEVSIDSNNVILSSTLSTGINLSALESIKRGGGIDRRPLQALMWVNCFVRMPYVQLSFRFMGPEDPSRTIKLMARATDAYMYKETGNNLDEYIRWRPSFRSPPENGSPNTSVQMQSDIKPALPDTQTTRVWKLALPVANVTYALFIVIVLVVVLGAVLFWK
B4: His-tagged pUL50 (HCMV groove protein, soluble recombinant) (other)
chain: MEMNKVLHQDLVQATRRILKLGPSELRVTDAGLICKNPNYSVCDAMLKTDTVYCVEYLLSYWESRTDHVPCFIFKNTGCAVSLCCFVRAPVKLVSPARHVGEFNVLKVNESLIVTLKDIEEIKPSAYGVLTKCVVRKSNSASVFNIELIAFGPENEGEYENLLRELYAKKAASTS
notes: also called His-tagged groove protein
B5: His-tagged BFRF1 (EBV groove protein, soluble recombinant) (other)
chain: MASPEERLLDELNNVIVSFLCDSGSLEVERCSGAHVFSRGSSQPLCTVKLRHGQIYHLEFVYKFLAFKLKNCNYPSSPVFVISNNGLATTLRCFLHEPSGLRSGQSGPCLGLSTDVDLPKNSIIMLGQDDFIKFKSPLVFPAELDLLKSMVVCRAYITEHRTTMQFLVFQAANAQKASRVMDMISDMSQQLS
notes: as for B4
B6: HCMV pUL53, C-terminally fused to the Flag epitope (pcDNA-UL53-Flag, pHM2590) (other)
chain: MSSVSGVRTPRERRSALRSLLRKRRQRELASKVASTVNGATSANNHGEPPSPADARPRLTLHDLHDIFREHPELELKYLNMMKMAITGKESICLPFNFHSHRQHTCLDISPYGNEQVSRIACTSCEDNRILPTASDAMVAFINQTSNIMKNRNFYYGFCKSSELLKLSTNQPPIFQIYYLLHAANHDIVPFMHAEDGRLHMHVIFENPDVHIPCDCITQMLTAAREDYSVTLNIVRDHVVISVLCHAVSASSVKIDVTILQRKIDEMDIPNDVSESFERYKELIQELCQSSGNNLYEEATSSYAIRSPLTASPLHVVSTNGCGPSSSSQSTPPHLHPPSQATQPHHYSHHQSQSQQHHHRPQSPPPPLFLNSIRAPDYKDDDDK
notes: also called pUL53-Flag; Flag-tagged pUL53
B7: EBV BFLF2, C-terminally fused to the Flag epitope (pcDNA-BFLF2-Flag, pHM4698) (other)
chain: MAPVTPDAVNARQQRPADPALRRLMHPHHRNYTASKASAHSVKSVSRCGKSRSELGRMERVGSVARSICSRHTRHGVDRSHFSLRDFFRGISANFELGKDFLREMNTPIHVSEAVFLPLSLCTLSPGRCLRLSPFGHSLTLGSHCEICINRSQVHVPQEFSSTQLSFFNNVHKIIPNKTFYVSLLSSSPSAVKAGLSQPSLLYAYLVTGHFCGTICPIFSTNGKGRLIMHLLLQGTSLHIPETCLKLLCENIGPTYELAVDLVGDAFCIKVSPRDTVYEKAVNVDEDAIYEAIKDLECGDELRLQIINYTQLILENKQDYKDDDDK
notes: also called Flag-tagged BFLF2
B8: pUL53 (50-292) (other)
chain: PSPADARPRLTLHDLHDIFREHPELELKYLNMMKMAITGKESICLPFNFHSHRQHTCLDISPYGNEQVSRIACTSCEDNRILPTASDAMVAFINQTSNIMKNRNFYYGFCKSSELLKLSTNQPPIFQIYYLLHAANHDIVPFMHAEDGRLHMHVIFENPDVHIPCDCITQMLTAAREDYSVTLNIVRDHVVISVLCHAVSASSVKIDVTILQRKIDEMDIPNDVSESFERYKELIQELCQSSG
B9: VZV Orf27, C-terminally fused to the Flag epitope (pcDNA-Orf27-Flag, pHM4696) (other)
chain: MHLKPTRFFHANQPPMPHSYEMEDLCFDDMQYRWSPSNTPYRSMSRRYKSVSRSGPSMRVRSRTPCRRQTIRGKLMSKERSVYRHYFNYIARSPPEELATVRGLIVPIIKTTPVTLPFNLGQTVADNCLSLSGMGYHLGLGGYCPTCTASGEPRLCRTDRAALILAYVQQLNNIYEYRVFLASILALSDRANMQAASAEPLLSSVLAQPELFFMYHIMREGGMRDIRVLFYRDGDAGGFMMYVIFPGKSVHLHYRLIDHIQAACRGYKIVAHVWQTTFLLSVCRNPEQQTETVVPSIGTSDVYCKMCDLNFDGELLLEYKRLYALFDDFVPPRDYKDDDDK
B10: EBV BFRF1, C-terminally fused to the HA epitope (pcDNA-BFRF1-HA, pHM4697) (other)
chain: MASPEERLLDELNNVIVSFLCDSGSLEVERCSGAHVFSRGSSQPLCTVKLRHGQIYHLEFVYKFLAFKLKNCNYPSSPVFVISNNGLATTLRCFLHEPSGLRSGQSGPCLGLSTDVDLPKNSIIMLGQDDFIKFKSPLVFPAELDLLKSMVVCRAYITEHRTTMQFLVFQAANAQKASRVMDMISDMSQQLSRSGQVEDTGARVTGGGGPRPGVTHSGCLGDSHVRGRGGWDLDNFSEAETEDEASYAPWRDKDSWSESEAAPWKKELVRHPIRRHRTRETRRMRGSHSRVEHVPPETRETVVGGAWRYSWRATPYLARVLAVTAVALLLMFLRWT
notes: also called EBC BFRF1-HA; HA-tagged BFRF1

Legend:
[1] = target: T1, His-tagged pUL50 (HCMV groove protein, soluble recombinant) (human cytomegalovirus (HCMV)), P16791; assay: competitive ELISA, inhibition of His-tagged pUL50 binding to coated pUL53
T1 chain: B4 chain

[2] = target: B6; assay: coimmunoprecipitation, transiently transfected 293T cells
[3] = target: B9; assay: as above
[4] = target: T2, pUL53 (HCMV hook protein, soluble recombinant) (human cytomegalovirus (HCMV), UniProt P16794 50-292); assay: direct ELISA, comparison of EC50 values
T2 sequence: B8 chain

[5] = target: T2, pUL53 (HCMV hook protein, soluble …); assay: direct ELISA, pUL53 coated, His-tagged pUL50 in serial dilutions, anti-His-HRP
[6] = target: T3, BFLF2 (EBV hook protein, soluble recombinant) (Epstein-Barr virus (EBV), UniProt P0CK47 78-318); assay: direct ELISA, BFLF2 coated, His-tagged BFRF1 in serial dilutions, anti-His-HRP
T3 sequence: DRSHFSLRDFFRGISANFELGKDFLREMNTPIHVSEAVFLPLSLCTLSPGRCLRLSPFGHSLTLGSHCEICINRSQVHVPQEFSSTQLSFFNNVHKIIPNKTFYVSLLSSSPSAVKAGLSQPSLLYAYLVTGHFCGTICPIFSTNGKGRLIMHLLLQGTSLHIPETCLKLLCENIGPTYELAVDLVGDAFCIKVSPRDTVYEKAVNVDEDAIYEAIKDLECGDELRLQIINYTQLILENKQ

[7] = target: T4, HCMV pUL50, C-terminally fused to the HA epitope (pcDNA-UL50-HA, pHM2589) (human cytomegalovirus (HCMV) strain …, UniProt P16791 1-397); assay: coimmunoprecipitation, transiently transfected 293T cells
T4 sequence: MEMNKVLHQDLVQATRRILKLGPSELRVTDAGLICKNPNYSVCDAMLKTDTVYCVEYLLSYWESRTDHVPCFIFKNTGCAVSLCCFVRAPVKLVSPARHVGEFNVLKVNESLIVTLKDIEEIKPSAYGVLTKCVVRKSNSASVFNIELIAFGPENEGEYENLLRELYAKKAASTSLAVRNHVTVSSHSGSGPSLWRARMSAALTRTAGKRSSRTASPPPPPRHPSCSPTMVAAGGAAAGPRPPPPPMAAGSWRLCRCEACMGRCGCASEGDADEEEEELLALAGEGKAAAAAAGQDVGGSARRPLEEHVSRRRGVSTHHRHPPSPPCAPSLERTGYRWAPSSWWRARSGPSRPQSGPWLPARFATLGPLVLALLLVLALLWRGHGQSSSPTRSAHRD

[8] = target: B10; assay: as above
[9] = target: the molecule itself; assay: analytical size exclusion chromatography, self-association

## B1
[1]
  IC50: 2600 nM
  fold lower inhibitory activity than the HCMV hook peptide: 22 fold

## B2
[1]
  IC50: 114 nM

## B3
[2]
  binding result: no binding
[3]
  binding result: binds

## B4
[4]
  fold stronger than the BFRF1-BFLF2 interaction of EBV: ~20 fold
[5]
  EC50: 6.2 nM

## B5
[6]
  EC50: 122 nM

## B6
[7]
  binding result: binds

## B7
[7]
  binding result: no binding
[8]
  binding result: binds

## B8
[9]
  binding result: binds

## B9
[7]
  binding result: no binding

## B10
[2]
  binding result: no binding
